# T1: GST-N (TGEV nucleocapsid protein) (Transmissible gastroenteritis …, UniProt P04134 1-382)
# T1 sequence: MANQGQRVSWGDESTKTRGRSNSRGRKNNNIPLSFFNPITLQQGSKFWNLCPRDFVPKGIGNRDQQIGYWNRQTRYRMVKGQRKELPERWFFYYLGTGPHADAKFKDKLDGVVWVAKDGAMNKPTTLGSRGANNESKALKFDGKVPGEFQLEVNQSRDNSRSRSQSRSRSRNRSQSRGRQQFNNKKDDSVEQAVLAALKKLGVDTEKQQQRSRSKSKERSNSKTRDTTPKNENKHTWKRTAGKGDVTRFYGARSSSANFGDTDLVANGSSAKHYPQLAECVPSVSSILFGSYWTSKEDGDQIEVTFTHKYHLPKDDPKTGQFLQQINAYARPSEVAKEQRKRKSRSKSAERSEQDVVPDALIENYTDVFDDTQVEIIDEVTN
# B1: TRS-L (ssRNA)
# RNA: UCGAACUAAACGAAAU
# Molecular target: T1, GST-N (TGEV nucleocapsid protein)
# Test: EMSA
binder,measurement,value
B1,binding result,binds

# Reference: PMC7111943
